Assay results taken from patent US20240092908A1 (ZHEJIANG DOER BIOLOGICS, published 2024).
Substitutions are numbered along the chain they refer to.

B1: anti-PD-1 single-domain antibody clone 1D3, histidine-tagged, from E. coli (VHH)
VHH: QVQLVESGGGLVQPGGSLNLSCVASGSVFIIDVMAWYRQAPGKQRELVAQIINGGATYYADSVKGRFTISRDDTKTTLYLQMNSLKPDDTAVYYCSAEKFNPYRDSTHFWGQGTQVTVSS
notes: Alpaca VHH expressed in E. coli Rosetta (DE3) from pET32a+, purified on a Ni column; not shown: C-terminal histidine tag
B2: anti-PD-1 single-domain antibody clone 2C4, histidine-tagged, from E. coli (VHH)
VHH: B1 VHH with Q13R, N19R, V23A, N53S, G55D, A56H, T57A, H108Y
notes: as for B1
B3: anti-PD-1 single-domain antibody clone 1A4, histidine-tagged, from E. coli (VHH)
VHH: B1 VHH with S27N, G55D, T57K, A60V, D73N, V92I, H108N
notes: as for B1
B4: anti-PD-1 single-domain antibody clone 2D9, histidine-tagged, from E. coli (VHH)
VHH: B1 VHH with N19R, V23A, G55D, T57K, D73N, K99Q, H108Y
notes: as for B1
B5: anti-PD-1 single-domain antibody clone 1H1, histidine-tagged, from E. coli (VHH)
VHH: B1 VHH with T57S, D73N, Y79F, D88A, S96N, H108N
notes: as for B1
B6: anti-PD-1 single-domain antibody clone 1A9, histidine-tagged, from E. coli (VHH)
VHH: B1 VHH with S27N, Y79N, S120A
notes: as for B1
B7: anti-PD1 single-domain antibody clone 1D3, displayed on recombinant phage (VHH, not shown: large carriers)
VHH: B1 VHH
notes: Tested as phage supernatant in the screening ELISAs of Embodiment 2.2
B8: anti-PD1 single-domain antibody clone 1A4, displayed on recombinant phage (VHH, not shown: large carriers)
VHH: B1 VHH with S27N, G55D, T57K, A60V, D73N, V92I, H108N
notes: as for B7
B9: anti-PD1 single-domain antibody clone 1H1, displayed on recombinant phage (VHH, not shown: large carriers)
VHH: B1 VHH with T57S, D73N, Y79F, D88A, S96N, H108N
notes: as for B7
B10: anti-PD1 single-domain antibody clone 2D9, displayed on recombinant phage (VHH, not shown: large carriers)
VHH: B1 VHH with N19R, V23A, G55D, T57K, D73N, K99Q, H108Y
notes: as for B7
B11: anti-PD1 single-domain antibody clone 2C4, displayed on recombinant phage (VHH, not shown: large carriers)
VHH: B1 VHH with Q13R, N19R, V23A, N53S, G55D, A56H, T57A, H108Y
notes: as for B7
B12: anti-PD1 single-domain antibody clone 1A9, displayed on recombinant phage (VHH, not shown: large carriers)
VHH: B1 VHH with S27N, Y79N, S120A
notes: as for B7

target: T1, Monkey RhPD1-HSA fusion protein (monkey); assay: ELISA, RhPD1-HSA coated 200 ng/well, VHH 1 µg/mL, anti-his detection
T1 construct: also called monkey PD-1
Description: (§1) Monkey RhPD1-HSA fusion protein (SEQ ID No. 30) was coated on plates at 200 ng/well overnight at 4° C. and blocked with 5% skim milk at room temperature for 1 hour. Purified histidine-tagged anti-PD1 single-domain antibody was diluted to 1 μg/mL and incubated at 37° C. for 1 hour with 100 μL per well. After washing with PBST 3 times, a mouse anti-his tag antibody (R&D Systems, Inc) diluted 1:5000 was added at 100 μl/well and incubated at room temperature for 1 hour. After washing with PBST, HRP-Goat anti-mouse IgG antibody (Thermo Scientific) diluted 1:10000 was added at 100 μl/well and incubated at room temperature for 1 hour. After washing with PBST, TMB color developing solution was added for color development and OD value was measured at 450 nm.

Row | Binder | OD450 nm
1 | B1 | 2.1 OD450 nm
2 | B2 | 2.03 OD450 nm
3 | B3 | 2 OD450 nm
4 | B4 | 2.1 OD450 nm
5 | B5 | 2.02 OD450 nm
6 | B6 | 2.02 OD450 nm

target: T2, fusion protein hPD1-HSA composed of a PD1 extracellular domain sequence and a human serum albumin sequence (human); assay: ELISA, hPD1-HSA coated 200 ng/well, VHH 1 µg/mL, anti-his detection
T2 construct: PD-1 extracellular domain fused to HSA; also called Human hPD1-HSA; human PD-1
Description: as §1, with “Human hPD1-HSA, mouse mPD1-HSA” for “Monkey RhPD1-HSA fusion protein”, “NO: 57) or HSA (purchased from Sigma) were” for “No. 30) was”, “anti-PD-1” for “anti-PD1”, “solution (Beijing ComWin Biotech Co., Ltd.)” for “solution”

Row | Binder | OD450 nm
7 | B1 | 2.1 OD450 nm
8 | B2 | 2.14 OD450 nm
9 | B3 | 2.13 OD450 nm
10 | B4 | 2.11 OD450 nm
11 | B5 | 2.17 OD450 nm
12 | B6 | 2.12 OD450 nm

target: fusion protein hPD1-Fc composed of the PD-1 extracellular domain sequence and human IgG1 FC (human); assay: competitive phage ELISA on coated hPD1-Fc; competitor Bio-hPDL1-HSA
Description: After washing 3 times with PBST, 100 μl of Streptavidin-HRP diluted 1:50000 (Jackson ImmunoResearch Inc) was added to each well and incubated at 37° C. for 1 hour. After washing 3 times with PBS, TMB color development working solution (Beijing ComWin Biotech Co., Ltd.) was added and incubated at room temperature for 5 minutes to develop color, then 1M sulfuric acid was added to terminate the reaction and OD450 nm reading was recorded. […] Competitive positive clones were selected for sequencing and duplicate sequences were removed.

Row | Binder | binding result
13 | B7 | binds
14 | B8 | binds
15 | B9 | binds
16 | B10 | binds
17 | B11 | binds
18 | B12 | binds

target: T3, mouse mPD1-HSA fusion protein (mouse); assay: ELISA, mPD1-HSA coated 200 ng/well, anti-his detection
T3 construct: also called mouse PD-1
Description: as §1, with “Human hPD1-HSA, mouse mPD1-HSA” for “Monkey RhPD1-HSA fusion protein”, “NO: 57) or HSA (purchased from Sigma) were” for “No. 30) was”, “anti-PD-1” for “anti-PD1”, “solution (Beijing ComWin Biotech Co., Ltd.)” for “solution”

Row | Binder | binding result
19 | B1 | no binding (tested: 1 µg/mL)
20 | B2 | no binding (tested: 1 µg/mL)
21 | B3 | no binding (tested: 1 µg/mL)
22 | B4 | no binding (tested: 1 µg/mL)
23 | B5 | no binding (tested: 1 µg/mL)
24 | B6 | no binding (tested: 1 µg/mL)

target: T4, HSA (purchased from Sigma) (human, UniProt P02768 25-609); assay: ELISA, HSA coated 200 ng/well, VHH 1 µg/mL, anti-his detection
T4 construct: Control coat for the HSA part of hPD1-HSA; also called human serum albumin
Description: as §1, with “Human hPD1-HSA, mouse mPD1-HSA” for “Monkey RhPD1-HSA fusion protein”, “NO: 57) or HSA (purchased from Sigma) were” for “No. 30) was”, “anti-PD-1” for “anti-PD1”, “solution (Beijing ComWin Biotech Co., Ltd.)” for “solution”

Row | Binder | OD450 nm
25 | B1 | 0.029 OD450 nm
26 | B2 | 0.022 OD450 nm
27 | B3 | 0.021 OD450 nm
28 | B4 | 0.019 OD450 nm
29 | B5 | 0.031 OD450 nm
30 | B6 | 0.035 OD450 nm
